Data reported in paper PMC4861830, “Isolation and Characterization of Three New Monoterpene Synthases from Artemisia annua” (Frontiers in Plant Science, 2016).

Substrate: CC(C)=CCC/C(C)=C/COP(=O)(O)OP(=O)(O)O
Assay: purified protein
Format: biochemical, Artemisia annua
Settings: Mg2+ (5 mM MgCl2), 25 mM HEPES pH 7.0, 5 mM DTT, 30 °C, GPP 3-100 μM
[1] = Table 1 prints 19.74 (text and table disagree; printed kcat/Km 7.66 × 10^4 fits 19.47)

Protein | Km | kcat | kcat/Km | Km [1] | kcat [1]
AaTPS2 (Artemisia annua) (protein, N-terminal 46-residue plastid signal peptide removed (before RR motif; full length 586 residues); pET-32a fusion tag kept; E. coli BL21(DE3); Ni-NTA) VRRTANYEPTLWSYDHIQSLSSKYTGEEYAARANILKNSVKRLLGEVENSPSILELVNDLQRLGIYYHFEDEIRNALEMIYYKYYKTPDKWGKMDLNLTALGFRLLRQHGYQVPQEIFQNFLDNAQNLKPHLLEEIAGMLNLYEASYHAFEDETILDNARAFTTKYLKENLDKIDGHILSLVSHALEFPLHWRVPRVEAKWYIEVYEKKNGMNHILIELAKLDFDMVQAIHLEDLKHASRWWRNTNWDKKLSFARDRLVENFLWTIGFNYLPQFSHGRRTLTKVNALITTIDDVYDVFGTLDEIEQFTDATNRWDINSIEELPDYMKICFLGFYNTINEITYNALTNKRFIILPYLKKAWGDLFKSFVVEANWYQSGHIPTLEEYLENGCISISGPVILMHVHFITSISSAEEIMQCMEISKDIVRYSSLIFRLTDDLGTSSGEMERGDNPKSLQCYMHETGASEDEARIYMKSLIGETWKKLNKERTHASSDITREFIDFATNLVRMAQFMYGEGDVHGRPDVTKSHVLSLLFNPIQEI | 8.25 µM | 0.52 s⁻¹ | 63100 M⁻¹ s⁻¹ |  | 
AaTPS5 (Artemisia annua) (protein, N-terminal 57-residue plastid signal peptide removed (before RR motif; full length 602 residues); pET-32a fusion tag kept; E. coli BL21(DE3); Ni-NTA) IRRSAGYPPSLWPYERIQAINSIYTGEKYASRLETLKEEVRNMIYKENEKAENPLSTLNLVDDLQRLGIWYHFVDDINNVLDNVYNKYYKSPEKWNTLDLNLKALGFRLLRHNGYHITQDIFEDIQDETRIMGHTIEDTLGLLNLYEASYHSFEDENILDEARAFTKKYLQGSLGKIDDQYLSSLTSRALDMPLHWRIARVETIWFMEAYEKRSGMNPTVLDLAKLDFNMVQAVHQEDLKYASRWWRTTKWDDKLSFARDRLVENYMWTIGNSYRPQFTLLRRILTKVFAIITTVDDVYDVHGTLDELERFTDVISRWNIYAIEELPDYMKICFLGFYNSVNDMAYTTLTDTGFFILPYLQKAWEDLCKAYLVEARWYHTKYMPTFKEYLDIAEVSISVPLMLTHISFVMNVCSTEEVIQSMDKIKNLIRYSSQILRLADDLGTSSDEMARGDTPKSIQCYMHETGATEEEARAHVRSLIIKVWQKLNKERAGLKTTYLKEFGECAANFGRMAQFMYQVADGHGHNIDLTEAYVLSLVVNPIQGV |  |  |  | 19.47 µM | 1.49 s⁻¹
AaTPS6 (Artemisia annua) (protein, N-terminal 46-residue plastid signal peptide removed (before RR motif; full length 587 residues); pET-32a fusion tag kept; E. coli BL21(DE3); Ni-NTA) GRRSANYEPSLWSFDHVQSLSSKYTGKNYVSRADSLKKIVKTMIHEVGNPSTALELVDDLQRLGIWYHFEDEISNVLEMIYRDFYDNEDRCSKMDMNFKALSFRLLRQHGYHVPQEIFHNFKEKTQNLKPYLHEDMVVMLNIYEASYYSYEDESIMDDARDFTAKYLKENHDSIDESISSLVSHALEFPLHWRIPREEAKWFIEFYEKRSGRNPTLIELAKLDFNMVQSIHLEDLKHASRWWRNTCWDKELPFARDRLMENFLWTVGVNYLPRFSLGRRTLTKVNAMITTIDDVYDVFGTIDELEKFTEVTNRWDINAVEELPDYMQICFIAFYNSINEIAYNTLTDTKFLILQYLKKGWVDLCNSYLKEAQWYESGYVPTLEEYLENAYVSISAPVILTHVNFLTTITSKEEILQFMETSDNIVRYSSLILRLADDLGTSSLEMARGDVPKSIQCYMHESGASEDEARMHIKDLILETWKKFNKEREHVKSKIAREFTYCAMNLGRMAQFMYREGDGHGHLSDVTKSHVLSWLINPIQGM | 17.70 µM | 4.46 s⁻¹ | 252000 M⁻¹ s⁻¹ |  | 
